Test results as given in IntAct's records for PubMed 29892012.

B1: Ribosome assembly protein METTL17, mitochondrial (Homo sapiens), Q9H7H0 (parent)
chain: MAAALKCLLTLGRWCPGLGVAPQARALAALVPGVTQVDNKSGFLQKRPHRQHPGILKLPHVRLPQALANGAQLLLLGSAGPTMENQVQTLTSYLWSRHLPVEPEELQRRARHLEKKFLENPDLSQTEEKLRGAVLHALRKTTYHWQELSYTEGLSLVYMAARLDGGFAAVSRAFHEIRARNPAFQPQTLMDFGSGTGSVTWAAHSIWGQSLREYMCVDRSAAMLVLAEKLLKGGSESGEPYIPGVFFRQFLPVSPKVQFDVVVSAFSLSELPSKADRTEVVQTLWRKTGHFLVLVENGTKAGHSLLMDARDLVLKGKEKSPLDPRPGFVFAPCPHELPCPQLTNLACSFSQAYHPIPFSWNKKPKEEKFSMVILARGSPEEAHRWPRITQPVLKRPRHVHCHLCCPDGHMQHAVLTARRHGRDLYRCARVSSWGDLLPVLTPSAFPPSTAQDPSES
partner: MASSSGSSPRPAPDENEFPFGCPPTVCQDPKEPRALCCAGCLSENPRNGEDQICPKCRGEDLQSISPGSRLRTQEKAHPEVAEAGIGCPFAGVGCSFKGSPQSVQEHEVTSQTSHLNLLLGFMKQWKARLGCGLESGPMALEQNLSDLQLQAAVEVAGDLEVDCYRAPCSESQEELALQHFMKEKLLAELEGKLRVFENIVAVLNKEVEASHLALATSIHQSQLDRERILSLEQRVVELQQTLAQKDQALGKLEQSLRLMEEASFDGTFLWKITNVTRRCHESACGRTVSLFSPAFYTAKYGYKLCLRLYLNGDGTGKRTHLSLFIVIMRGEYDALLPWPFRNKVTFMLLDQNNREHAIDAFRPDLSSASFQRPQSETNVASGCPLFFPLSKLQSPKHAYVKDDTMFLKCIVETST
B2: Pleckstrin homology domain-containing family G member 2 (Homo sapiens), Q9H7P9 (parent)
chain: MPEGAQGLSLSKPSPSLGCGRRGEVCDCGTVCETRTAPAAPTMASPRGSGSSTSLSTVGSEGDPAPGPTPACSASRPEPLPGPPIRLHLSPVGIPGSARPSRLERVAREIVETERAYVRDLRSIVEDYLGPLLDGGVLGLSVEQVGTLFANIEDIYEFSSELLEDLENSSSAGGIAECFVQRSEDFDIYTLYCMNYPSSLALLRELSLSPPAALWLQERQAQLRHSLPLQSFLLKPVQRILKYHLLLQELGKHWAEGPGTGGREMVEEAIVSMTAVAWYINDMKRKQEHAARLQEVQRRLGGWTGPELSAFGELVLEGAFRGGGGGGPRLRGGERLLFLFSRMLLVAKRRGLEYTYKGHIFCCNLSVSESPRDPLGFKVSDLTIPKHRHLLQAKNQEEKRLWIHCLQRLFFENHPASIPAKAKQVLLENSLHCAPKSKPVLEPLTPPLGSPRPRDARSFTPGRRNTAPSPGPSVIRRGRRQSEPVKDPYVMFPQNAKPGFKHAGSEGELYPPESQPPVSGSAPPEDLEDAGPPTLDPSGTSITEEILELLNQRGLRDPGPSTHDIPKFPGDSQVPGDSETLTFQALPSRDSSEEEEEEEEGLEMDERGPSPLHVLEGLESSIAAEMPSIPCLTKIPDVPNLPEIPSRCEIPEGSRLPSLSDISDVFEMPCLPAIPSVPNTPSLSSTPTLSCDSWLQGPLQEPAEAPATRRELFSGSNPGKLGEPPSGGKAGPEEDEEGVSFTDFQPQDVTQHQGFPDELAFRSCSEIRSAWQALEQGQLARPGFPEPLLILEDSDLGGDSGSGKAGAPSSERTASRVRELARLYSERIQQMQRAETRASANAPRRRPRVLAQPQPSPCLPQEQAEPGLLPAFGHVLVCELAFPLTCAQESVPLGPAVWVQAAIPLSKQGGSPDGQGLHVSNLPKQDLPGIHVSAATLLPEQGGSRHVQAPAATPLPKQEGPLHLQVPALTTFSDQGHPEIQVPATTPLPEHRSHMVIPAPSTAFCPEQGHCADIHVPTTPALPKEICSDFTVSVTTPVPKQEGHLDSESPTNIPLTKQGGSRDVQGPDPVCSQPIQPLSWHGSSLDPQGPGDTLPPLPCHLPDLQIPGTSPLPAHGSHLDHRIPANAPLSLSQELPDTQVPATTPLPLPQVLTDIWVQALPTSPKQGSLPDIQGPAAAPPLPEPSLTDTQVQKLTPSLEQKSLIDAHVPAATPLPERGGSLDIQGLSPTPVQTTMVLSKPGGSLASHVARLESSDLTPPHSPPPSSRQLLGPNAAALSRYLAASYISQSLARRQGPGGGAPAASRGSWSSAPTSRASSPPPQPQPPPPPARRLSYATTVNIHVGGGGRLRPAKAQVRLNHPALLASTQESMGLHRAQGAPDAPFHM
B3: Protein VAC14 homolog (Homo sapiens), Q08AM6 (parent)
chain: MNPEKDFAPLTPNIVRALNDKLYEKRKVAALEIEKLVREFVAQNNTVQIKHVIQTLSQEFALSQHPHSRKGGLIGLAACSIALGKDSGLYLKELIEPVLTCFNDADSRLRYYACEALYNIVKVARGAVLPHFNVLFDGLSKLAADPDPNVKSGSELLDRLLKDIVTESNKFDLVSFIPLLRERIYSNNQYARQFIISWILVLESVPDINLLDYLPEILDGLFQILGDNGKEIRKMCEVVLGEFLKEIKKNPSSVKFAEMANILVIHCQTTDDLIQLTAMCWMREFIQLAGRVMLPYSSGILTAVLPCLAYDDRKKSIKEVANVCNQSLMKLVTPEDDELDELRPGQRQAEPTPDDALPKQEGTASGGPDGSCDSSFSSGISVFTAASTERAPVTLHLDGIVQVLNCHLSDTAIGMMTRIAVLKWLYHLYIKTPRKMFRHTDSLFPILLQTLSDESDEVILKDLEVLAEIASSPAGQTDDPGPLDGPDLQASHSELQVPTPGRAGLLNTSGTKGLECSPSTPTMNSYFYKFMINLLKRFSSERKLLEVRGPFIIRQLCLLLNAENIFHSMADILLREEDLKFASTMVHALNTILLTSTELFQLRNQLKDLKTLESQNLFCCLYRSWCHNPVTTVSLCFLTQNYRHAYDLIQKFGDLEVTVDFLAEVDKLVQLIECPIFTYLRLQLLDVKNNPYLIKALYGLLMLLPQSSAFQLLSHRLQCVPNPELLQTEDSLKAAPKSQKADSPSIDYAELLQHFEKVQNKHLEVRHQRSGRGDHLDRRVVL
partner: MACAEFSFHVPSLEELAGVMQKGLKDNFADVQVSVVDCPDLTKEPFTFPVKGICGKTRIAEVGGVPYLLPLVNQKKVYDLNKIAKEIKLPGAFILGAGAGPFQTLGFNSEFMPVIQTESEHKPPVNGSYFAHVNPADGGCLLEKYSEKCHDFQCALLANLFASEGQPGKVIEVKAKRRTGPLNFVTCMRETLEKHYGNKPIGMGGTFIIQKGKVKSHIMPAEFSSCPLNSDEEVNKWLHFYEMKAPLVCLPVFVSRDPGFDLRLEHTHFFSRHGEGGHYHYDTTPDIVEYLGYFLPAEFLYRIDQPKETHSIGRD
B4: Keratin, type I cuticular Ha8 (Homo sapiens), O76015 (parent)
chain: MTSSYSSSSCPLGCTMAPGARNVSVSPIDIGCQPGAEANIAPMCLLANVAHANRVRVGSTPLGRPSLCLPPTCHTACPLPGTCHIPGNIGICGAYGENTLNGHEKETMQFLNDRLANYLEKVRQLEQENAELEATLLERSKCHESTVCPDYQSYFHTIEELQQKILCSKAENARLIVQIDNAKLAADDFRIKLESERSLRQLVEADKCGTQKLLDDATLAKADLEAQQESLKEEQLSLKSNHEQEVKILRSQLGEKLRIELDIEPTIDLNRVLGEMRAQYEAMLETNRQDVEQWFQAQSEGISLQDMSCSEELQCCQSEILELRCTVNALEVERQAQHTLKDCLQNSLCEAEDRFGTELAQMQSLISNVEEQLSEIRADLERQNQEYQVLLDVKTRLENEIATYRNLLESEDCKLPCNPCSTSPSCVTAPCAPRPSCGPCTTCGPTCGASTTGSRF
partner: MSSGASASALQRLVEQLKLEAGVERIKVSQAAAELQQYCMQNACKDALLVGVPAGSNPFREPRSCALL

Variants of: B1
Conditions: with traf1_human TRAF1, Q13077

Row | effect of a mutation on the interaction | Variant
1 | with no effect | R212H

Variants of: B2
Conditions: with actn3_human ACTN3, Q08043
Sequence of actn3_human ACTN3, Q08043 (Q08043 whole entry): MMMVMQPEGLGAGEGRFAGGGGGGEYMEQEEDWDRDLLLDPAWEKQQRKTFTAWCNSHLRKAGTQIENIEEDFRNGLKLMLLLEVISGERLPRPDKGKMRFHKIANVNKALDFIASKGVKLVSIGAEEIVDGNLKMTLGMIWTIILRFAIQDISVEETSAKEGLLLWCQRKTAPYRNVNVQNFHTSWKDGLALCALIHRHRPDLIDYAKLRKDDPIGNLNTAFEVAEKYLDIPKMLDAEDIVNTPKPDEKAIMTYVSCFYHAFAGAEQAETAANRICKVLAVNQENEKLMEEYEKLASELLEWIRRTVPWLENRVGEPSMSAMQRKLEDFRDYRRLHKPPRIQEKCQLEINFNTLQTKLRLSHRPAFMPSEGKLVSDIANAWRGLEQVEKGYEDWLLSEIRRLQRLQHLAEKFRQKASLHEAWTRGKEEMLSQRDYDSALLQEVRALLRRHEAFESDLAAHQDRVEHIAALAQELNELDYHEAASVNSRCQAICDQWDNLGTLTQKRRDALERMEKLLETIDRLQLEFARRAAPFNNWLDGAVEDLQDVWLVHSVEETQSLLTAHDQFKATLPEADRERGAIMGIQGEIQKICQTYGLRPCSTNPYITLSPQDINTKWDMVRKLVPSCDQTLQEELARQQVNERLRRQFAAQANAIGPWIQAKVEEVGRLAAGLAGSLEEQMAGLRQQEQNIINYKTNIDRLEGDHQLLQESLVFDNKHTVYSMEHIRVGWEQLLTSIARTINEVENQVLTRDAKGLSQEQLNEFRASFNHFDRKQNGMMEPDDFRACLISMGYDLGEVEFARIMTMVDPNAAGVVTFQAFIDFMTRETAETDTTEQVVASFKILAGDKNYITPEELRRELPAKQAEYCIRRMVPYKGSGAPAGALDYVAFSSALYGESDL

Row | effect of a mutation on the interaction | Variant
2 | with no effect | V1248I

Variants of: B3
Conditions: with ck054_human C11orf54, Q9H0W9

Row | effect of a mutation on the interaction | Variant
3 | with no effect | A127S

Variants of: B4
Conditions: with gbg10_human GNG10, P50151

Row | effect of a mutation on the interaction | Variant
4 | with no effect | N270K

Variants of: B4
Conditions: with gbg10_human GNG10, P50151
Remark: another data set of the same source

Row | effect of a mutation on the interaction | Variant
5 | with no effect | D306A
